Test results taken from article PMC6201590, “Fibronectin type III domain-containing protein 5 interacts with APP and decreases amyloid β production in Alzheimer’s disease” (Molecular Brain, 2018).

Target: full-length APP770 tagged with V5 (UniProt P05067-1 18-770)
Experiment: cell-based or functional assay

Chain of full-length APP770 tagged with V5 (P05067 18-770): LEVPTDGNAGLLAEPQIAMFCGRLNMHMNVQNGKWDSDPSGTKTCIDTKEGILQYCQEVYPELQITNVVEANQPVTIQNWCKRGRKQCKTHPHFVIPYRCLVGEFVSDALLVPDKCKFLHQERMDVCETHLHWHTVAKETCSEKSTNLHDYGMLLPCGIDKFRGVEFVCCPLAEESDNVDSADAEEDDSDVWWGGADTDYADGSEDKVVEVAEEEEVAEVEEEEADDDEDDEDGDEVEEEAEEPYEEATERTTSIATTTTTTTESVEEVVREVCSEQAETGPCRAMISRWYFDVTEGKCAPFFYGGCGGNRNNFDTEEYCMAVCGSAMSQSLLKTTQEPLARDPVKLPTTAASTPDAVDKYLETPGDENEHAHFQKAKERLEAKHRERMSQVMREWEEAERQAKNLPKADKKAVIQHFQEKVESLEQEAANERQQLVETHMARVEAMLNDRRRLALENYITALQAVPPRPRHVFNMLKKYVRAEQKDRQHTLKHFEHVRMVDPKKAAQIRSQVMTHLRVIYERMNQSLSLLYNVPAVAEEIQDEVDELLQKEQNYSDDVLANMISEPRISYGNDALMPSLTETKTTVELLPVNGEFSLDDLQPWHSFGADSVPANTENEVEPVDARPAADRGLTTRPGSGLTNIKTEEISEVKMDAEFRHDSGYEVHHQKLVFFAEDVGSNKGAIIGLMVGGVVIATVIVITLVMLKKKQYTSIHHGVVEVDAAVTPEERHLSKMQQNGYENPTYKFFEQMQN

B1: Fibronectin type III domain-containing protein 5 tagged with HA at the C-terminus (natural protein, mouse, UniProt Q8K4Z2 60-240, looked up)
chain: DSPSAPVNVTVRHLKANSAVVSWDVLEDEVVIGFAISQQKKDVRMLRFIQEVNTTTRSCALWDLEEDTEYIVHVQAISIQGQSPASEPVLFKTPREAEKMASKNKDEVTMKEMGRNQQLRTGEVLIIVVVLFMWAGVIALFCRQYDIIKDNEPNNNKEKTKSASETSTPEHQGGGLLRSKI
Q: For B1, which “Aβ40 and Aβ42 secreted into the medium (ELISA) of HEK293 cells transfected with APP770-V5 and FNDC5-HA, with Aβ1–16 peptide treatment against without it” value is on record?
A: ~1.4 fold
